CN115246884A (SHANGHAI JUNSHI BIOSCIENCES CO LTD; JUNMENG BIOSCIENCES CO …, dated 2022)

How the values were obtained:
[1] = biological target: 人PD-L1重组蛋白 (human) (UniProt Q9NZQ7); test: Biacore SPR, AHC capture of antibody, PD-L1 as analyte 0.78125-12.5 nM
[2] = biological target: MAB-BA-231细胞表面人PD-L1 (human) (UniProt Q9NZQ7); test: FACS on cells carrying human PD-L1
[3] = biological target: His标签人PD-L1抗原 (human) (UniProt Q9NZQ7); test: ELISA, His-tagged human PD-L1 coated at 2.0 μg/mL; ratio = EC50 of chimeric antibody C1 (chC1) / EC50 of humanised antibody x 100%
[4] = biological target: 生物素化的PD-L1抗原 (UniProt Q9NZQ7); test: competition ELISA, biotinylated PD-L1 on streptavidin, competitor PD-1 mFc 2.0 μg/mL; ratio = IC50 of chimeric antibody / IC50 of humanised antibody x 100%
[5] = biological target: T1, 人PD-L1重组蛋白 (human, UniProt Q9NZQ7 19-238); test: Biacore SPR, AHC capture of antibody, PD-L1 as analyte 0.78125-12.5 nM
T1 construct: also called 重组人PD-L1; 液相中游离PD-L1
T1 sequence (Q9NZQ7 19-238 limits assumed): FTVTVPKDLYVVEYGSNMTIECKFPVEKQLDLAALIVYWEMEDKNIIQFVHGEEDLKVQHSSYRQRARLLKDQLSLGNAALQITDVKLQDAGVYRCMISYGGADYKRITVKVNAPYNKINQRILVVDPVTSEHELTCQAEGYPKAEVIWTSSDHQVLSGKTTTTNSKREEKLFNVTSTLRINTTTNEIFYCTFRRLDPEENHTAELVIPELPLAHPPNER

[6] = biological target: CD28重组蛋白 (UniProt P10747 19-152, limits assumed); test: ELISA on recombinant proteins
Chain of CD28重组蛋白 (P10747 19-152 limits assumed): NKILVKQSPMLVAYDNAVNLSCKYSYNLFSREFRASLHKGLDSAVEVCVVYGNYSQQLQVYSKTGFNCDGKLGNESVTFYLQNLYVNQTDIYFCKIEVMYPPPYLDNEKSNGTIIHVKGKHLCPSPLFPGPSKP

[7] = biological target: T2, PD-1重组蛋白 (UniProt Q15116 25-167, limits assumed); test: ELISA on recombinant proteins
T2 construct: also called 受体PD-1
T2 sequence (Q15116 25-167 limits assumed): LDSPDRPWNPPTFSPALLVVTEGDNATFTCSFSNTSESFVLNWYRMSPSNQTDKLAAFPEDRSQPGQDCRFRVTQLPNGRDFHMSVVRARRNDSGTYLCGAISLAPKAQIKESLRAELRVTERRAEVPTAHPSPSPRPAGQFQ

[8] = biological target: T3, B7H4重组蛋白 (UniProt Q7Z7D3 29-258, limits assumed); test: ELISA on recombinant proteins
T3 sequence (looked up): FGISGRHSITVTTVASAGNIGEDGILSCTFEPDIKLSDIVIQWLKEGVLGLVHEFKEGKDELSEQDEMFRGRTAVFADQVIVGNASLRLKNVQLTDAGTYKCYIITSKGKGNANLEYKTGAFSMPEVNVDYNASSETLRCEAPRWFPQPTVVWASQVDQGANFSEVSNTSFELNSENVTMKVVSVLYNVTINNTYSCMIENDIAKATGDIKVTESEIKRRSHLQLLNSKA

[9] = biological target: T4, ICOS重组蛋白 (UniProt Q9Y6W8 21-140, limits assumed); test: ELISA on recombinant proteins
T4 sequence (looked up): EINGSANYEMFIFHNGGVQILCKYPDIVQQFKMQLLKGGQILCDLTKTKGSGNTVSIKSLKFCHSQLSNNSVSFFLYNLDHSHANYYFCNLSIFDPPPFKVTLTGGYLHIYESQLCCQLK

[10] = biological target: T5, B7H3重组蛋白 (UniProt Q5ZPR3 29-461, limits assumed); test: ELISA on recombinant proteins
T5 sequence (looked up): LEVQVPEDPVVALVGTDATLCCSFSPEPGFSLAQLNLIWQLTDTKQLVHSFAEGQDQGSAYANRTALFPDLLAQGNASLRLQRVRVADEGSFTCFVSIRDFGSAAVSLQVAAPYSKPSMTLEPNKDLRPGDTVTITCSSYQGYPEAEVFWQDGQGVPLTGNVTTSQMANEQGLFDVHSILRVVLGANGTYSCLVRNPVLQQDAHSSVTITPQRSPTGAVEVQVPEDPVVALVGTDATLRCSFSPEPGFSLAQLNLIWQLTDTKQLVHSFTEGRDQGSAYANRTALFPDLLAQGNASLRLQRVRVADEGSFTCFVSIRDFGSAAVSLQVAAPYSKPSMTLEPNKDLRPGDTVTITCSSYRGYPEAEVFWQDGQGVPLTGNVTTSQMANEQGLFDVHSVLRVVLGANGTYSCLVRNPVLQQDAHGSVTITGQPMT

[11] = biological target: T6, CTLA4重组蛋白 (UniProt P16410 36-161, limits assumed); test: ELISA on recombinant proteins
T6 sequence (looked up): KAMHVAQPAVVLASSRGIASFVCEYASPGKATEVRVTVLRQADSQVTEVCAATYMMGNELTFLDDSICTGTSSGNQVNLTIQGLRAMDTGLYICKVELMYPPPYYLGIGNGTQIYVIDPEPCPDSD

[12] = biological target: T1, 人PD-L1重组蛋白; test: ELISA, inhibition of recombinant human PD-L1 binding to PD-1
[13] = biological target: T7, MAB-BA-231细胞表面人PD-L1 (human, UniProt Q9NZQ7 19-290); test: FACS on MAB-BA-231 cells carrying human PD-L1
T7 construct: whole, on cells; also called 人PD-L1高表达细胞株(MBA-MA-231)
T7 sequence (Q9NZQ7 19-290): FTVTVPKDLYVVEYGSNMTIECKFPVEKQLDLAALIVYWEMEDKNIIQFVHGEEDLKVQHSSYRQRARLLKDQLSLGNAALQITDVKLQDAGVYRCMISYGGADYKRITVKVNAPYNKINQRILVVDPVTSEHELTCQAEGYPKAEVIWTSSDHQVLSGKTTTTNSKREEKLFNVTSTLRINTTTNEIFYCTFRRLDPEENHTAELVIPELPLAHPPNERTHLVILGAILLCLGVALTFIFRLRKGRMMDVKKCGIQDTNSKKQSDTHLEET

对照抗体KN035 (Envafolimab) (Fc fusion)
Ka [1]: 2.47e+09 M⁻¹
Kd [1]: 0.405 nM
EC50 [2]: 8.8 ng/mL

B1: 人源化抗PD-L1单域抗体C1-hu1 (Fc fusion, not shown: a dimerising Fc or GST)
heavy: EVQLLESGGGLVQPGGSLRLSCAASGAAPCMAWFRQAPGKGLEGVSASVRGGLSPYYADVKGRFTISHDIPKNTMYLQMNSLRAEDTAVYYCAARATFYRCEGDASSYTYWGQGTLVTVSS
相对结合活性，% [3]: 45.5%
相对竞争抑制活性，% [4]: 53.4%

B2: 人源化抗PD-L1单域抗体C1-hu5 (Fc fusion, not shown: a dimerising Fc or GST)
heavy: EVQLVESGGGLVQPGGSLRLSCAASGAAPCMAWFRQAPGKGLEGVSASVRGGLSPYYADVKGRFTISHDIPKNTMYLQMNSLRAEDTAVYYCAARATFYRCEGDASSYTYWGQGTLVTVSS
相对结合活性，% [3]: 62.5%
相对竞争抑制活性，% [4]: 61.7%

B3: 人源化抗PD-L1单域抗体C1-hu15 (Fc fusion, not shown: a dimerising Fc or GST)
heavy: EVQLVESGGGLVQPGGSLRLSCAASGAAPCMAWFRQAPGKEREGVAASVRGGLSPYYADVKGRFTISHDNSKNTMYLQMNSLRAEDTAVYYCAARATFYRCEGDASSYTYWGQGTLVTVSS
相对竞争抑制活性，% [4]: 68.1%

B4: 人源化抗PD-L1单域抗体C1-hu16 (Fc fusion, not shown: a dimerising Fc or GST)
heavy: EVQLVESGGGLVQPGGSLRLSCAASGAAPCMAWFRQAPGKEREGVAASVRGGLSPYYADVKGRFTISHDIPKNTMYLQMNSLRAEDTAVYYCAARATFYRCEGDASSYTYWGQGTLVTVSS
相对结合活性，% [3]: 76.6%
相对竞争抑制活性，% [4]: 107%

B5: 人源化抗PD-L1单域抗体C1-hu11 (Fc fusion, not shown: a dimerising Fc or GST)
heavy: EVQLVESGGGLVQPGGSLRLSCAASGAAPCMAWFRQAPGKGREGVAASVRGGLSPYYADVKGRFTISHDIPKNTMYLQMNSLRAEDTAVYYCAARATFYRCEGDASSYTYWGQGTLVTVSS
相对结合活性，% [3]: 81.3%
相对竞争抑制活性，% [4]: 89.1%

B6: 人源化抗PD-L1单域抗体C1-hu2 (Fc fusion, not shown: a dimerising Fc or GST)
heavy: EVQLLESGGGLVQPGGSLRLSCAASGAAPCMAWFRQAPGKGLEGVSASVRGGLSPYYADVKGRFTISHDIPKNTLYLQMNSLRAEDTAVYYCAARATFYRCEGDASSYTYWGQGTLVTVSS
相对结合活性，% [3]: 56.5%
相对竞争抑制活性，% [4]: 73.3%

B7: 单域嵌合抗体(VHH-hFc)chC1 (Fc fusion)
heavy: QVQLQESGGGSVQTGGSLRLSCAASGAAPCMAWFRQAPGKEREGVAASVRGGLSPYYADSVKGRFTISHDIPKNTMYLQMNSLQPDDTALYYCAARATFYRCEGDASSYTYWGQGTQVTVSS
notes: VHH of C1 cloned upstream of the human IgG1 Fc gene and expressed in 293F cells; also called 嵌合抗体chC1; 嵌合抗体C1; not shown: Fc segment of the human IgG1 heavy chain constant region
Ka [5]: 3.16e+09 M⁻¹
Kd [5]: 0.317 nM
koff [5]: 0.000462 s⁻¹
kon [5]: 1.46e+06 M⁻¹ s⁻¹
binding result [6]: no binding
binding result [7]: no binding
binding result [8]: no binding
binding result [9]: no binding
binding result [10]: no binding
binding result [11]: no binding
IC50 [12]: 590 ng/mL
EC50 [13]: 8.1 ng/mL
